Results as given in patent publication US20240415884A1 (UNIVERSITY OF PITTSBURGH OF THE COMMONWEALTH SYSTEM OF …, published 2024).
Where a chain is given by its changes, count along the chain named. Values belong to the binder of their own block, whether it stands above or below them.

What was measured:
[1] = biological target: T1, human CD276 polypeptide (antigen of the ELISA of Clones #1-#8) (human, UniProt Q5ZPR3 29-461, limits assumed); assay: ELISA on a human CD276 polypeptide
T1 construct: For panning it was fused at its C-terminus to human IgG1 Fc (CD276-Fc); also called B7-H3
T1 sequence: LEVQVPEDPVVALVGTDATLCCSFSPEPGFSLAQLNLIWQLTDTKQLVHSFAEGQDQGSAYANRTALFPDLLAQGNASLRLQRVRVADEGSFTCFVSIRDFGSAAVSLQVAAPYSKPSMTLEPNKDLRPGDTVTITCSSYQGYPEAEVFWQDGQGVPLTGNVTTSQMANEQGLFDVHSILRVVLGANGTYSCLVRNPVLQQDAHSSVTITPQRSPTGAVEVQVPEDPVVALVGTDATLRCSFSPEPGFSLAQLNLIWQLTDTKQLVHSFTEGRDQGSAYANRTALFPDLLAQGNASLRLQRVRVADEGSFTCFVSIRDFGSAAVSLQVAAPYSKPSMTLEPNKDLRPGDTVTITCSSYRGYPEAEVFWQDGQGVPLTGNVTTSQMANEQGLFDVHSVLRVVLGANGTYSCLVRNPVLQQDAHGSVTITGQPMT

[2] = biological target: T2, 4Ig CD276 polypeptide with his tag (human, UniProt Q5ZPR3 29-466); assay: SPR, panel CD276-His; sensorgrams with fits, response up to about 12 RU; which partner is on the chip is not stated
T2 construct: extracellular domain; SPR antigen; also called 4Ig CD276-his; not shown: his tag
T2 sequence (looked up): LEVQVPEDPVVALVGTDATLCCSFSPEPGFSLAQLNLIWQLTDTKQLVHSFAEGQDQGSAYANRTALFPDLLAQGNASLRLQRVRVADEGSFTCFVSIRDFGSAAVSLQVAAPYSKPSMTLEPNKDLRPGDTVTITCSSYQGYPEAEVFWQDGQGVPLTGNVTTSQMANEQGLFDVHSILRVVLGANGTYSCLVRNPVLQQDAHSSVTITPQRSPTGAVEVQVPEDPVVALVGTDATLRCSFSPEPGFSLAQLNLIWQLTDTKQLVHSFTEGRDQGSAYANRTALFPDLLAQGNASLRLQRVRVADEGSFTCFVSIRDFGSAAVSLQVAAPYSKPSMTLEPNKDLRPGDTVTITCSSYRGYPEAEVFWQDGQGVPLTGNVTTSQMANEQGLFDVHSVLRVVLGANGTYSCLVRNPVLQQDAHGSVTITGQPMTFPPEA

[3] = biological target: T3, recombinant CD276 polypeptide that included four Ig-like extracellular domains (human, UniProt Q5ZPR3 29-466); assay: ELISA on recombinant CD276 polypeptide with four Ig-like extracellular domains (FIG. 28)
T3 construct: extracellular domain; also called 4Ig CD276 polypeptide; a CD276 polypeptide
T3 sequence (looked up): T2 sequence (looked up)
Procedure: Clones #9 and #10, two VH binders, bound to a CD276 polypeptide with EC₅₀ values of 8.1 and 1.2 nM, respectively, as tested by ELISA. […] The molecular weight of these two clones were validated by mass spectrum. The binding kinetics of clone #9 and #10 to the 4Ig CD276 polypeptide with both his tag and Fc tag were measured by surface plasmon resonance. […] See, FIGS. 28-32.

[4] = biological target: T4, 4Ig CD276 polypeptide with Fc tag (human, UniProt Q5ZPR3 29-466); assay: SPR, panel CD276-Fc; sensorgrams with fits, response up to about 11 RU; which partner is on the chip is not stated
T4 construct: extracellular domain; SPR antigen; also called 4Ig CD276-Fc; not shown: Fc tag
T4 sequence (looked up): T2 sequence (looked up)

[5] = biological target: T2, 4Ig CD276 polypeptide with his tag; assay: SPR, panel CD276-His; sensorgrams with fits, response up to about 18 RU; which partner is on the chip is not stated
[6] = biological target: T4, 4Ig CD276 polypeptide with Fc tag; assay: SPR, panel CD276-Fc; sensorgrams with fits, response up to about 15 RU; which partner is on the chip is not stated

B4: Clone #1 (ab1) (Fab, V domains shown)
VH: QVQLVESGGGLVKPGGSLRLSCAASGFTFSDYYMSWIRQAPGKGLEWVSYISSSGSTIYYADSVKGRFTISRDNAKNSLYLQMNSLRAEDTAVYYCARGINFGLDIWGQGTTVTVSS
VL: DIQMTQSPSSLSASVGDRVTITCRASQSISSYLNWYQQKPGKAPKLLIYAASSLQSGVPSRFSGSGSGTDFTLTISSLQPEDVGVYYCMQALQTLFGQGTKVDIKR
notes: also called #1 (Fab)
- EC50 [1]: 34 nM

B5: Clone #4 (ab4) (VHH)
VHH: EVQLVESGGGLVQPGGSLRLSCAASWFDFQDYDMSWVRQAPGKGLEWIGEINHSGSTNYNPSLKSRVTISRDNSKNTLYLQMNSLRAEDTAVYYCAKIGYWGQGTLVTVSS
notes: kind VHH is used for single domain; also called #4 (VH domain)
- EC50 [1]: 0.9 nM

B7: Clone #9 (ab9) (VHH)
VHH: EVQLVESGGGVVQPGRSLRLSCAASGFTFSSYAMHWVRQAPGQGLEWVSTIGPRGINTHYADSVKGRFTISRDNSKNTLYLQMNSLRAEDTATYYCARDRVGYNSYGMDVWGQGTMVTVSS
notes: also called A10; #9 (VH domain)
- Kd [2]: 6 nM
- EC50 [3]: 8.1 nM
- Kd [4]: 5.3 nM

B8: Clone #10 (ab10) (VHH)
VHH: EVQLVESGGGVVQPGRSLRLSCAASGFTFSSYAMHWVRQAPGKGLEWIGEIYHGGSTDYNPSLKSRVTISRDDSTNTLYLQMNSLRAEDTAVYYCTRGGKRLLSVYGVDVWGQGTMVTVSS
notes: also called C7; #10 (VH domain)
- EC50 [3]: 1.2 nM
- Kd [5]: 7.83 nM
- Kd [6]: 5.2 nM

B9: Clone #3 (ab3) (Fab, V domains shown)
VH: QVQLVESGGGLVKPGGSLRLSCAASGFTFSDYYMSWIRQAPGKGLEWVSYISSSGSTIYYADSVKGRFTISRDNAKNSLYLQMNSLRAEDTAVYYCARRGGSYYARGAFDIWGQGTMVTVSS
VL: DIQMTQSPSSLSASVGDRVTITCRASQSISSYLNWYQQKPGKAPKLLIYAASSLQSGVPSRFSGSGSGTDFTLTISSLQPEDAATYYCQHRSDWPPKFTFGPGTKVDIKR
notes: also called #3 (Fab)
- EC50 [1]: 26 nM

B10: Clone #2 (ab2) (Fab, V domains shown)
VH: QVQLVESGGGLVKPGGSLRLSCAASGFTFSDYYMSWIRQAPGKGLEWVSYISSSGSTIYYADSVKGRFTISRDNAKNSLYLQMNSLRAEDTAVYYCARRGAMGHHDGFDMWGLGTMVTVSS
VL: DIQMTQSPSSLSASVGDRVTITCRASQSISSYLNWYQQKPGKAPKLLIYAASSLQSGVPSRFSGSGSGTDFTLTISSLQPEDVAVYYCQQRSNWPLYTFGQGTKLEIKR
notes: also called #2 (Fab)
- EC50 [1]: 46 nM

The next lines start with the values.

- EC50 [1]: 1.2 nM
B1: Clone #5 (ab5) (VHH)
VHH: EVQLVESGGGLVQPGGSLRLSCAASPFPFTIYEMSWVRQASGKALEWIGYINHSGSTNYNPSLKSRVTISRDNSKNTLYLQMNSLRAEDTAMYYCAILAPDYWGQGTLVTVSS
notes: also called #5 (VH domain)

- EC50 [1]: 10 nM
B2: Clone #6 (ab6) (VHH)
VHH: EVQLVESGGGLVQPGGSLRLSCAASGSPFPHYEMSWVRQAPGKGLEWMGWINTNTGKSTYAQGFTGRFTISRDNSKNTLYLQMNSLRAEDTAVYYCARSGYGYYFDYWGQGTLVTVSS
notes: also called #6 (VH domain)

- EC50 [1]: 4 nM
B3: Clone #8 (ab8) (Fab, V domains shown)
VH: QVQLVESGGGLVKPGGSLRLSCAASGFTFSDYYMSWIRQAPGKGLEWVSYISSSGSTIYYADSVKGRFTISRDNAKNSLYLQMNSLRAEDTAVYYCARDAPTSGWKWFAPDYWGQGALVTVSS
VL: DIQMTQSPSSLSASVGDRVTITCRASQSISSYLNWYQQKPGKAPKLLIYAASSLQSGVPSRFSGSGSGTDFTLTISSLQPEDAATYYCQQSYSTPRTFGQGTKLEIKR
notes: also called #8 (Fab)

- EC50 [1]: 0.6 nM
B6: Clone #7 (ab7) (VHH)
VHH: B5 VHH with W26G, D28T, Q30S, D31S, D33A, K43Q, A96V, K97H, G99D, T108A
notes: also called #7 (VH domain)
